Source: patent publication US12084521B2, “TLR9 inhibitors to suppress inflammatory response to pathogens” (University Of Maryland, Baltimore, priority 2018, dated 2024)
No end group written: not given here.

Assays:
[1] = target: T1, TIRAP TIR (Homo sapiens, UniProt P58753); assay: FLIM/FRET binding of Cy3-labeled peptides to Cer-fused TIR in HeLa cells; settings: HeLa cells, Cy3-peptide 2.5-40 μM, 1 hour
T1 construct: fused with TLR9 TIR or TIRAP TIR; expressed in transfected cells; host or cells: HeLa
Experimental: Three million HeLa cells were transfected with 10 μg of MyD88-Cer, TIRAP-Cer, TRAM-Cer, TLR2-Cer, TLR4 TIR-Cer, or TLR9 TIR-Cer expression vectors using a Lipofectamine™ 3000 kit from Invitrogen™ per manufacturer recommendations. Twenty four hours later, the transfected cells were trypsinized and reseeded into a 50-well gasket (Grace Bio-Labs™) mounted on a microscope slide at the density 8000 cells/well. The next day, cells were treated with Cy3-9R34-ΔN or Cy3-9R11 for 1 hour and fixed on the slides with a 4% paraformaldehyde solution.
Fluorescence lifetime images were acquired using the Alba V FLIM™ system (ISS™ Inc.). The excitation was from the laser diode 443 nm coupled with scanning module (ISS™) through multiband dichroic filter 443/532/635 nm (Semrock™) to Olympus™ IX71S microscope with objective 20×0.45 NA (UPlan™ Olympus™). Emission was observed through bandpass filter […] (Chroma Technology™) and detected by a photomultiplier H7422-40 (Hamamatsu™). Measurements were performed using frequency domain (FD) and time domain (TD) modalities of the FLIM system. FD FLIM data were acquired using ISS™ A320 FastFLIM™ electronics with n harmonics of 20 MHz laser repetition frequency (n=1, 2, 3, 4, 5, 6). FastFLIM™ was calibrated using fluorescein in buffer pH 8.0 as a standard with a single lifetime of 4.0 ns. TD FLIM images were acquired using time-correlated single photon counting TCSPC™ Model SPC-830 (Becker & Hick™).
Images (256×256 pixels) were acquired with resolution varied in the range ˜0.4-0.7 μm/pixel, using scan speed 1 ms/pixel. To avoid pixel intensity saturation in bright cells and to improve the signal from dim cells, two to five overlapping scans were used for acquisition of FLIM images. Image sizes varied from 100×100 to 180×180 μm to accommodate multiple cells. FLIM data were analyzed with VistaVision™ Suite software (Vista™ v.212 from ISST). Fluorescence lifetime was determined using single- and bi-exponential intensity decay models. Average lifetime images were generated based on pixel-by-pixel analysis using the combined signal of two neighboring pixels in all directions (bin 2=25 pixels). The binning was used to improve the signal for analysis. The average lifetimes were calculated from fitted parameters, decay times τi and amplitudes αi, τa=Σαiτi. The bi-exponential fitting procedure was performed with one lifetime component fixed at 3.1 nsec, which was found common for most images. To calculate the effective FRET efficiency (E), average lifetimes of the donor only images (τD) and donor-acceptor images (τDA) were used, E=1−τDA/τD.
To identify potential binding partners of inhibitory peptides a FRET approach coupled with Fluorescence Lifetime Imaging Microscopy (FLIM) was used. HeLa cells were transiently transfected with an expression vector that encodes a TIR domain fused with Cerulean fluorescent protein (Cer). Cells were treated with various concentrations of a Cy3-labeled inhibitory peptide 48 hours after transfection. Cy3 is a suitable FRET acceptor for Cer fluorescence. A direct molecular interaction of a Cy3-labeled peptide with Cer-fused TIR domain should quench Cer fluorescence, leading to a decreased fluorescence lifetime.
TLR9, MyD88, and TIRAP were selected as potential primary binding partners for Cy3-9R34-ΔN and Cy3-9R11. Cer-fused TLR2 and TLR4 TIR domains, and Cer not fused to a TIR, were used as controls. […] Therefore, the TIRAP-Cer with Cy3-2R9 was used as a positive binding control. Binding of Cy3-labeled CPDPs to Cerulean- (Cer-) labeled TIR domains was tested as follows. Fluorescence Lifetime IMages (FLIM) were made of HeLa cells expressing Cer not fused with a TIR domain (upper row) or fused with TLR9 TIR or TIRAP TIR (middle and bottom rows) and treated with a Cy3-labeled decoy peptide for 1 hour.
A progressive shift of average fluorescence lifetime towards lower values observed with increasing peptide concentrations indicates the binding between donor and acceptor moieties. […]

[2] = system: TLR9 signaling; assay: Plasma cytokines after i.p. ODN 1668 in mice; type: in vivo, C57BL/6J mice; settings: peptide 200 nmol/mouse i.p.; ODN 1668 7.86 nmol/mouse
Experimental: (§1) Systemic cytokine levels were measured in plasma samples obtained 1, 3, and 5 hours after intraperitoneal (i.p.) administration of 7.86 nmol (50 μg) of ODN 1668 or 67 nmol of Pam3C per mouse, using ELISA kits from Biolegend™ Inc. CPDP were dissolved in PBS and administered i.p. at the dose of 200 nmol per mouse 1 hour before administration of a TLR agonist. For survival experiments, mice were sensitized to TLR9 agonists by i.p. injection of 20 mg of D-Gal 30 minutes before administration of peptides or PBS. ODN 1668 was used at the doses of 3.93 or 7.86 nmol/mouse (25 or 50 μg/mouse) 1.5 hours after D-Gal. Animal survival was monitored for 50 hours. All agents were administered i.p. in 500 μL volume of PBS. Animals had free access to food and water during the observation period. All animal experiments were conducted in accordance with the national guidelines for the care and use of laboratory animals under a protocol that was approved by the UMB IACUC.
To test the in vivo efficacy and specificity of 9R34-ΔN, C57BL/6J mice were mock-treated or treated i.p. with a single dose of inhibitory or control peptide (200 nmol/mouse) and challenged with TLR9 agonist ODN 1668 (7.86 nmol/mouse) or TLR2/1 agonist Pam3C (67 nmol/mouse) 1 hour later. Plasma concentrations of TNFα and IL-12-p40 were measured 1, 3, and 5 hours after the challenge. Both TLR agonists increased concentrations of TNFα and IL-12-p40 in 1 hour samples from below the limit of detection to about 1.2 and about 6 ng/mL in the case of ODN 1668, and to 0.12 ng/mL and 1 ng/mL after treatment with Pam3C.
Plasma TNFα and IL-12-p40 levels following intraperitioneal administration of ODN 1668 to C57Bl/6J mice in peptide-pretreated and control mice are shown in FIG. 14A and FIG. 14B. Data shown in these figures represent the means±SEM obtained in at least three independent experiments. The statistical significance of changes in cytokine concentrations was determined by a two-way ANOVA test; *p<0.001.

[3] = target: recombinant TIRAP (Homo sapiens, UniProt P58753); settings: cited from earlier work
[4] = system: TLR2/1 signaling; assay: Plasma cytokines after i.p. Pam3C in mice; type: in vivo, C57BL/6J mice; settings: peptide 200 nmol/mouse i.p.; Pam3C 67 nmol/mouse
Experimental: as §1, with “Animals had free access to food and water during the observation period. All animal experiments were conducted in accordance with the national guidelines for the care and use of laboratory animals under a protocol that was approved by the UMB IACUC.” left out
To test the in vivo efficacy and specificity of 9R34-ΔN, C57BL/6J mice were mock-treated or treated i.p. with a single dose of inhibitory or control peptide (200 nmol/mouse) and challenged with TLR9 agonist ODN 1668 (7.86 nmol/mouse) or TLR2/1 agonist Pam3C (67 nmol/mouse) 1 hour later. Plasma concentrations of TNFα and IL-12-p40 were measured 1, 3, and 5 hours after the challenge. […]
Plasma TNFα and IL-12-p40 levels following intraperitioneal administration of ODN 1668 to C57Bl/6J mice in peptide-pretreated and control mice are shown in FIG. 14A and FIG. 14B. […] The statistical significance of changes in cytokine concentrations was determined by a two-way ANOVA test; *p<0.001.

Sequence of recombinant TIRAP (P58753 whole entry): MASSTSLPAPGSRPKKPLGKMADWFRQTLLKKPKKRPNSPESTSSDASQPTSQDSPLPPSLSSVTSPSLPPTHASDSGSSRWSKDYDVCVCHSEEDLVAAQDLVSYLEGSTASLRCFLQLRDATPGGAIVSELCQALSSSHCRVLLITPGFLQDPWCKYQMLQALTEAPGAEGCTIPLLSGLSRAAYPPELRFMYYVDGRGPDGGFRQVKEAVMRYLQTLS
T1 sequence (P58753 84-213 limits assumed): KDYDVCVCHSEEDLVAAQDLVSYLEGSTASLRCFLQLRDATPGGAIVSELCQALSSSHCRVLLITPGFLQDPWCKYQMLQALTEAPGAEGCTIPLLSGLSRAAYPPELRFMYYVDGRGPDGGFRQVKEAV

With “PQRFCKLRKIMNT (also: Cy3 label, position not given here) [Peptide 2R9, reference compound]” as the sequence, how does the “quenching of TIRAP-Cer fluorescence” value [1] read?
The value was “slightly higher than for the TLR9-9R34-ΔN pair”.

And the “ODN 1668-induced plasma cytokine levels (TNFα, IL-12-p40)” value [2]?
The value was “suppressed cytokine induction”.

What about the “affinity for recombinant TIRAP” value [3] of the same sequence?
Its value is “nanomolar”.

And the “Pam3C-induced plasma cytokine levels (TNFα, IL-12-p40)” value [4]?
The value was “suppressed cytokine induction”.
